Source: patent US20090004214A1 (COMMISSARIAT A L ENERGIE ATOMIQUE, published 2009)

target: T1, HLA-DR7 molecule (DRB1*0701) (human); test: competitive ELISA, tracer YKL
T1 construct: HLA class II heterodimer

Row | Binder | IC50
1 | KKQFEELTLGEFLKL (synthetic 15-mer) [survivin peptide 90-104] | 0.14 µM
2 | LSVKKQFEELTLGEF (synthetic 15-mer) [survivin peptide 87-101] | 0.705 µM
3 | AGFIHCPTENEPDLA (synthetic 15-mer) [survivin peptide 41-55] | 3.73 µM
4 | ERMAEAGFIHCPTEN (synthetic 15-mer) [survivin peptide 36-50] | 17 µM
5 | QCFFCFKELEGWEPD (synthetic 15-mer) [survivin peptide 56-70] | 13 µM
6 | KNWPFLEGCACTPER (synthetic 15-mer) [survivin peptide 23-37] | 60 µM
7 | KQFEELTLGEFLKLD (synthetic 15-mer) [survivin peptide 91-105] | 0.056 µM
8 | FCFKELEGWEPDDDP (synthetic 15-mer) [survivin peptide 59-73] | 9 µM
9 | LKLDRERAKNKIAKE (synthetic 15-mer) [survivin peptide 102-116] | 50 µM
10 | STFKNWPFLEGCACT (synthetic 15-mer) [survivin peptide 20-34] | 20 µM
11 | AKKVRRAIEQLAAMD (synthetic 15-mer) [survivin peptide 128-142] | 1.34 µM

target: T2, HLA-DR3 molecule (DRB1*0301) (human); test: competitive ELISA, tracer MT 2-16
T2 construct: HLA class II heterodimer

Row | Binder | IC50
12 | AKKVRRAIEQLAAMD (synthetic 15-mer) [survivin peptide 128-142] | 12 µM

target: T3, HLA-DR1 molecule (DRB1*0101) (human); test: competitive ELISA, tracer HA 306-318
T3 construct: HLA class II heterodimer

Row | Binder | IC50
13 | KKQFEELTLGEFLKL (synthetic 15-mer) [survivin peptide 90-104] | 0.04 µM
14 | MGAPTLPPAWQPFLK (synthetic 15-mer) [survivin peptide 1-15] | 10.8 µM
15 | LSVKKQFEELTLGEF (synthetic 15-mer) [survivin peptide 87-101] | 0.15 µM
16 | AGFIHCPTENEPDLA (synthetic 15-mer) [survivin peptide 41-55] | 2.31 µM
17 | ERMAEAGFIHCPTEN (synthetic 15-mer) [survivin peptide 36-50] | 2.55 µM
18 | QCFFCFKELEGWEPD (synthetic 15-mer) [survivin peptide 56-70] | 1.6 µM
19 | KNWPFLEGCACTPER (synthetic 15-mer) [survivin peptide 23-37] | 0.071 µM
20 | KQFEELTLGEFLKLD (synthetic 15-mer) [survivin peptide 91-105] | 0.012 µM
21 | FCFKELEGWEPDDDP (synthetic 15-mer) [survivin peptide 59-73] | 3.76 µM
22 | LKLDRERAKNKIAKE (synthetic 15-mer) [survivin peptide 102-116] | 7.75 µM

target: T4, HLA-DR11 molecule (DRB1*1101) (human); test: competitive ELISA, tracer HA 306-318
T4 construct: HLA class II heterodimer

Row | Binder | IC50
23 | KKQFEELTLGEFLKL (synthetic 15-mer) [survivin peptide 90-104] | 2.35 µM
24 | MGAPTLPPAWQPFLK (synthetic 15-mer) [survivin peptide 1-15] | 0.063 µM
25 | LSVKKQFEELTLGEF (synthetic 15-mer) [survivin peptide 87-101] | 2.06 µM
26 | AGFIHCPTENEPDLA (synthetic 15-mer) [survivin peptide 41-55] | 1.15 µM
27 | ERMAEAGFIHCPTEN (synthetic 15-mer) [survivin peptide 36-50] | 5.59 µM
28 | QCFFCFKELEGWEPD (synthetic 15-mer) [survivin peptide 56-70] | 0.363 µM
29 | KNWPFLEGCACTPER (synthetic 15-mer) [survivin peptide 23-37] | 37 µM
30 | KQFEELTLGEFLKLD (synthetic 15-mer) [survivin peptide 91-105] | 2.35 µM
31 | FCFKELEGWEPDDDP (synthetic 15-mer) [survivin peptide 59-73] | 1.84 µM
32 | LKLDRERAKNKIAKE (synthetic 15-mer) [survivin peptide 102-116] | 8.94 µM

target: T5, HLA-DRB5 molecule (DRB5*0101) (human); test: competitive ELISA, tracer HA 306-318
T5 construct: HLA class II heterodimer

Row | Binder | IC50
33 | KKQFEELTLGEFLKL (synthetic 15-mer) [survivin peptide 90-104] | 0.28 µM
34 | MGAPTLPPAWQPFLK (synthetic 15-mer) [survivin peptide 1-15] | 8 µM
35 | LSVKKQFEELTLGEF (synthetic 15-mer) [survivin peptide 87-101] | 6 µM
36 | AGFIHCPTENEPDLA (synthetic 15-mer) [survivin peptide 41-55] | 3.38 µM
37 | ERMAEAGFIHCPTEN (synthetic 15-mer) [survivin peptide 36-50] | 3.79 µM
38 | QCFFCFKELEGWEPD (synthetic 15-mer) [survivin peptide 56-70] | 20 µM
39 | KNWPFLEGCACTPER (synthetic 15-mer) [survivin peptide 23-37] | 3.42 µM
40 | KQFEELTLGEFLKLD (synthetic 15-mer) [survivin peptide 91-105] | 0.145 µM
41 | FCFKELEGWEPDDDP (synthetic 15-mer) [survivin peptide 59-73] | 45 µM
42 | LKLDRERAKNKIAKE (synthetic 15-mer) [survivin peptide 102-116] | 0.018 µM

target: T6, HLA-DR4 molecule (DRB1*0401) (human); test: competitive ELISA, tracer HA 306-318
T6 construct: HLA class II heterodimer

Row | Binder | IC50
43 | KKQFEELTLGEFLKL (synthetic 15-mer) [survivin peptide 90-104] | 0.748 µM
44 | LSVKKQFEELTLGEF (synthetic 15-mer) [survivin peptide 87-101] | 6.45 µM
45 | AGFIHCPTENEPDLA (synthetic 15-mer) [survivin peptide 41-55] | 5 µM
46 | ERMAEAGFIHCPTEN (synthetic 15-mer) [survivin peptide 36-50] | 17 µM
47 | KNWPFLEGCACTPER (synthetic 15-mer) [survivin peptide 23-37] | 5.2 µM
48 | KQFEELTLGEFLKLD (synthetic 15-mer) [survivin peptide 91-105] | 1.59 µM
49 | FCFKELEGWEPDDDP (synthetic 15-mer) [survivin peptide 59-73] | 58 µM
50 | STFKNWPFLEGCACT (synthetic 15-mer) [survivin peptide 20-34] | 5.2 µM

target: T7, HLA-DR15 molecule (DRB1*1501) (human); test: competitive ELISA, tracer A3 152-166
T7 construct: HLA class II heterodimer

Row | Binder | IC50
51 | KKQFEELTLGEFLKL (synthetic 15-mer) [survivin peptide 90-104] | 7.5 µM
52 | MGAPTLPPAWQPFLK (synthetic 15-mer) [survivin peptide 1-15] | 80 µM
53 | KELEGWEPDDDPIEE (synthetic 15-mer) [survivin peptide 62-76] | 65 µM
54 | LSVKKQFEELTLGEF (synthetic 15-mer) [survivin peptide 87-101] | 4.8 µM
55 | AGFIHCPTENEPDLA (synthetic 15-mer) [survivin peptide 41-55] | 7 µM
56 | QCFFCFKELEGWEPD (synthetic 15-mer) [survivin peptide 56-70] | 3 µM
57 | KQFEELTLGEFLKLD (synthetic 15-mer) [survivin peptide 91-105] | 3.16 µM
58 | FCFKELEGWEPDDDP (synthetic 15-mer) [survivin peptide 59-73] | 8 µM
59 | AKKVRRAIEQLAAMD (synthetic 15-mer) [survivin peptide 128-142] | 0.284 µM

target: T8, HLA-DRB4 molecule (DRB4*0101) (human); test: competitive ELISA, tracer E2/E168
T8 construct: HLA class II heterodimer

Row | Binder | IC50
60 | LSVKKQFEELTLGEF (synthetic 15-mer) [survivin peptide 87-101] | 9.8 µM
61 | AGFIHCPTENEPDLA (synthetic 15-mer) [survivin peptide 41-55] | 0.328 µM
62 | ERMAEAGFIHCPTEN (synthetic 15-mer) [survivin peptide 36-50] | 49 µM
63 | STFKNWPFLEGCACT (synthetic 15-mer) [survivin peptide 20-34] | 5.5 µM
64 | AKKVRRAIEQLAAMD (synthetic 15-mer) [survivin peptide 128-142] | 1.8 µM

target: T9, HLA-DRB3 molecule (DRB3*0101) (human); test: competitive ELISA, tracer LOL 191-210
T9 construct: HLA class II heterodimer

Row | Binder | IC50
65 | KKQFEELTLGEFLKL (synthetic 15-mer) [survivin peptide 90-104] | 48 µM
66 | KELEGWEPDDDPIEE (synthetic 15-mer) [survivin peptide 62-76] | 29 µM
67 | LSVKKQFEELTLGEF (synthetic 15-mer) [survivin peptide 87-101] | 6.8 µM
68 | AGFIHCPTENEPDLA (synthetic 15-mer) [survivin peptide 41-55] | 10 µM
69 | QCFFCFKELEGWEPD (synthetic 15-mer) [survivin peptide 56-70] | 12 µM
70 | KQFEELTLGEFLKLD (synthetic 15-mer) [survivin peptide 91-105] | 30 µM

target: T10, HLA-DP402 molecule (DPB1*0402) (human, UniProt P20036 29-222, limits assumed); test: competitive ELISA, tracer Oxy 271-287
T10 construct: HLA class II heterodimer; also called DP*0402

Row | Binder | IC50
71 | KKQFEELTLGEFLKL (synthetic 15-mer) [survivin peptide 90-104] | 0.019 µM
72 | MGAPTLPPAWQPFLK (synthetic 15-mer) [survivin peptide 1-15] | 6.93 µM
73 | LSVKKQFEELTLGEF (synthetic 15-mer) [survivin peptide 87-101] | 6.39 µM
74 | ERMAEAGFIHCPTEN (synthetic 15-mer) [survivin peptide 36-50] | 3.17 µM
75 | KNWPFLEGCACTPER (synthetic 15-mer) [survivin peptide 23-37] | 3.7 µM
76 | KQFEELTLGEFLKLD (synthetic 15-mer) [survivin peptide 91-105] | 0.012 µM
77 | AKKVRRAIEQLAAMD (synthetic 15-mer) [survivin peptide 128-142] | 20 µM

target: T11, HLA-DP401 molecule (DPB1*0401) (human, UniProt P20036 29-222, limits assumed); test: competitive ELISA, tracer Oxy 271-287
T11 construct: HLA class II heterodimer; also called DP*0401

Row | Binder | IC50
78 | KKQFEELTLGEFLKL (synthetic 15-mer) [survivin peptide 90-104] | 0.048 µM
79 | MGAPTLPPAWQPFLK (synthetic 15-mer) [survivin peptide 1-15] | 9.2 µM
80 | LSVKKQFEELTLGEF (synthetic 15-mer) [survivin peptide 87-101] | 3.67 µM
81 | ERMAEAGFIHCPTEN (synthetic 15-mer) [survivin peptide 36-50] | 3.62 µM
82 | KQFEELTLGEFLKLD (synthetic 15-mer) [survivin peptide 91-105] | 0.011 µM
83 | AKKVRRAIEQLAAMD (synthetic 15-mer) [survivin peptide 128-142] | 13 µM
